Holding throughout (conditions): both partners purified
Assay [1] deals with T1, 6xHis-tagged HACS1 SH3 domain (human, UniProt Q9NSI8 163-224).
T1 construct: human HACS1 SH3 domain, codon-optimized synthetic gene; Gene synthesized, in a pD441NH expression vector (ATUM); 15N-labelled in the NMR experiments; Minimal folded SH3 domain is 168-222 by the NMR structure; also called HACS SH3 domain; 6xHis-tagged SH3 domain; source: E. coli, purified (Nickel-NTA, gel filtration)
As to the kind of experiment: SPR; biotinylated phosphopeptide on a streptavidin gold sensor chip (OpenSPR); analyte 20 µM to 0.1 µM in 10 mM Tris-HCl, 100 mM NaCl, pH 7.4, 0.1% bovine serum albumin, 0.005% Tween-20, 0.05% NaN3; 40 µL/min; 1:1 interaction model.

Assay [2] concerns the target T2, 6xHis/Flag-tagged human SHP2 N-SH2 domain (human, UniProt Q06124 1-107).
T2 construct: human SHP2 phosphatase, N-SH2 domain, aa; 1-107; Gene synthesized; also called SHP2 SH2-N; SHP2 SH2(N) domain; source: E. coli, purified (Nickel-NTA, gel filtration)
T2 sequence (looked up): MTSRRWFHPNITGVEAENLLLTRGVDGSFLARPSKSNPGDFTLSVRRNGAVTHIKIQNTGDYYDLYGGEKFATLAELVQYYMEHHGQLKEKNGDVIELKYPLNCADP
The assay is described as above.

Assay [3] addresses T1, 6xHis-tagged HACS1 SH3 domain. The assay is described as follows: ITC; 600 µM PIRB-GB1 in the syringe, 37 µM 6xHis-tagged HACS1 SH3 domain in the cell; 10 mM Tris, 50 mM NaCl, 1 mM TCEP, 0.05 NaN3, pH 7.5; single-site binding model.

Non-standard residues stand in square brackets, D forms with d. No end group written: not given here. pY = N[C@@H](Cc1ccc(OP(=O)(O)O)cc1)C(=O)O

Data on three molecules can be found in article PMC7666139 (Communications Biology, 2020).

T1 sequence (Q9NSI8 163-224): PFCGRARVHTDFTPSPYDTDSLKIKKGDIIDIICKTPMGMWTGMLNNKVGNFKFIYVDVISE

B1: biotinylated murine PIRB derived phosphopeptide (peptide)
peptide: GGQDVT[pY]AQLCSRTLRQGAAAS
modifications: also: biotin (position not given here)
notes: The leading GG may be a spacer and not part of PIRB; also called murine PIRB phospho-ITIM3 peptide; source: synthetic peptide (Genscript)
B1 displayed a Kd in assay [1] of 15.9 µM.

For the molecule GGQDVT[pY]AQLHSLTRLREATE (also: biotin (position not given here)) [biotinylated human PIRB derived phosphopeptide], in assay [2], the Kd stood at 6.7 µM, the koff was determined as 0.026 s⁻¹ and the kon stood at 3800 M⁻¹ s⁻¹. In assay [1], this molecule showed a Kd of 8.7 µM, a koff of 0.017 s⁻¹ and a kon of 1900 M⁻¹ s⁻¹.

B2: murine PIRB-GB1 fusion protein (peptide, UniProt P97484 797-809, looked up)
chain: LCSRTLRQGAAAS
notes: 797-809; Methods: PIRB fragment and GB1 separated by a random 13 amino acid linker; Not phosphorylated; also called PIRB-GB1 hybrid protein; Protein GB1-tagged PIRB; source: E. coli, purified (Nickel-NTA, gel filtration); not shown: Protein G B1 domain (GB1), C-terminal, kept
Turning to B2, in assay [3], the Kd came out at 15.9 µM and the “stoichiometry N” value is 1.
